Assay results published in CN111995674A (INST MILITARY MEDICINE ACADEMY MILITARY SCIENCES PLA, dated 2020).

Target: SARS-CoV-2 Spike蛋白 (去除末端19个氨基酸), 新冠假病毒表面 (SARS-CoV-2, UniProt P0DTC2 14-1254)
Assay: cell-based or functional assay

B1: 人鼠嵌合全抗体mhC3 (antibody, V domains shown)
VH: EVQLVESGGDLVKPGGSLKLSCAASGFTFNTYAMNWVRQTPGKGLEWVARIRSKSNNYATYYADSVKDRFTISRDDSQSMLYLQMNNLKTEDTAMYYCVTPYYGNYADWFTYWGQGTSVTVSS
VL: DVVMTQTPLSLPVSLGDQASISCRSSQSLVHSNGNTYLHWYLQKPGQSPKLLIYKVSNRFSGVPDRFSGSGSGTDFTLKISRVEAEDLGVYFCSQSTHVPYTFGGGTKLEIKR
notes: also called mhC3抗体; C3 (图5、图6)
Q: For B1, which “中和新冠假病毒 EC50 (luciferase, Huh7细胞)” value is on record?
A: The value was 0.223 µg/mL.
